According to patent publication US20230322924A1 (Janssen / Centocor, published 2023):

T1: human TMEFF2 extracellular domain (ECD) (human, UniProt Q9UIK5 41-320)
T1 construct: also called TMEFF2-ECD
T1 sequence: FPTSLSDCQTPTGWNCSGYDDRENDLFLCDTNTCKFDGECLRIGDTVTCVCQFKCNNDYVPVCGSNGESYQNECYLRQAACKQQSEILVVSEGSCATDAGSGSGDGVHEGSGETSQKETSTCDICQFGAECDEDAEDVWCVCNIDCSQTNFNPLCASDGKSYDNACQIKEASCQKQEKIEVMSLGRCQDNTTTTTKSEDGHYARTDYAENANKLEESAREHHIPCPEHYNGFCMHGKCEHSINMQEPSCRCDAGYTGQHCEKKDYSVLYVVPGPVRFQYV

T2: rh-CD19 (UniProt P15391 20-291, limits assumed)
T2 sequence (looked up): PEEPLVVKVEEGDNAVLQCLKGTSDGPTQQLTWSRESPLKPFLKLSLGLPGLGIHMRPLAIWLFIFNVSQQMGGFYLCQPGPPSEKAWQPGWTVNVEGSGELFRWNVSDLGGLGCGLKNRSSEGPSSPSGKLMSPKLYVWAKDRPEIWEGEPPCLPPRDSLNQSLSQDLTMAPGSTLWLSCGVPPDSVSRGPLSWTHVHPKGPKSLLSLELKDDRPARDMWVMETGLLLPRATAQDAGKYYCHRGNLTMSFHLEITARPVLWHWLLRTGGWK

T3: Soy Trypsin Inhibitor (soy, UniProt P01070 25-205)
T3 construct: also called STI
T3 sequence (looked up): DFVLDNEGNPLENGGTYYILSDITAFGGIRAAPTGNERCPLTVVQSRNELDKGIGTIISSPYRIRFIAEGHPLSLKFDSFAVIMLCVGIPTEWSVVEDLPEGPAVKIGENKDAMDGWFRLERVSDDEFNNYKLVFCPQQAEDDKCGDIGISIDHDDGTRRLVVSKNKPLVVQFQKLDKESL


Tests used:
Human CD33 ECD-HSA = target: T4, Human CD33 ECD-HSA (human); experiment: SPRi off-rate screen (IBIS MX96)
T4 construct: CD33 ECD fused at the C-terminus to monomeric HSA (C58S) and a six-histidine tag; also called C33W2; huCD33 ECD-HSA

Human CD33-V-HSA = target: T5, Human CD33-V-HSA (human); experiment: SPRi off-rate screen (IBIS MX96)
T5 construct: V domain of human CD33 fused to HSA; also called C33W3; huCD33-V-HSA

[1] = target: T6, human PSMA on cells (LNCaP) (human, UniProt Q04609 1-750); experiment: flow cytometry on LNCaP cells
T6 construct: whole, on cells; also called LNCaP cells
Procedure: PSMA×CD3 bispecific antibodies were tested for binding to PSMA positive cell line, LNCAP, to PSMA negative cell line, PC3. To assess the binding capabilities of the PSMA bispecific antibodies, the cell-binding assay was utilized (described previously). Bispecific antibodies were normalized for protein concentration and then incubated with the same number of cells expressing either human or cyno PSMA. The MFI at each concentration was collected by flow cytometry and plotted as a function of concentration. Data was transformed via log 10 and then plotted. Nonlinear regression of binding curves was done to determine EC50s.

N-terminal CD3ε peptide = target: T7, N-terminal CD3ε peptide; experiment: Biacore 8K SPR, antibody captured on anti-human Ig, peptide as analyte
T7 construct: domain: N-terminal CD3ε peptide
Procedure: Kinetic rate constants were measured by SPR performed using Biacore 8K (GE Healthcare) and anti-human Fc biosensor surfaces. Anti-human immunoglobulin antibodies were covalently coupled to the surface of a CM4 sensor chip (GE Healthcare). Antibodies of interest were captured on the anti-human immunoglobulin sensor chip, followed by injection of N-terminal CD3ε peptide at various concentrations in HEPES Buffered Saline containing 0.05% surfactant P20 (Tween™ 20) and 100 ug/mL BSA. The surface was regenerated with 2 pulses injections of 30 μL of 0.8% phosphoric acid at 100 μL/min. Data reported is the difference in SPR signal between the flow cell containing the captured antibody and a reference cell without captured antibody. Additional instrumental contributions to the signal were removed by subtraction of the data from the blank injection from the reference-subtracted signal. The data were analyzed by fitting association and dissociation phases at all concentrations (global fit) with a 1:1 binding model using the Biaevaluation software (Biacore, Inc.). Data is reported as average+95% CI (Confidence Interval) which is calculated by t value for 95% CI*stdev/square root of the number of replicates.

[2] = target: T1, human TMEFF2 extracellular domain (ECD); experiment: KinExA solution equilibrium affinity
Procedure: Serial dilutions of human TMEFF2 extracellular domain (ECD) were prepared with a constant concentration of anti-TMEFF2 mAb in 10 mM HEPES, 150 mM NaCL, 0.05% surfactant P20, pH 7.4, 0.1% BSA, and 0.02% NaN3. The reaction mixtures were incubated at RT until the binding interactions reached equilibrium. The duration of the incubation was determined using KinExA software simulation. Beads were prepared by direct covalent immobilization of TMEFF2-ECD by amine-coupling on pre-activated beads composed of bis-acrylamide/azlactone copolymer (Pierce Biotechnology, Inc.). After incubation the samples were run on the KinExA instrument to assess free antibody in the mixture by passing the mixture though the TMEFF2-modified beads, and detecting the captured antibody using a fluorescently labeled secondary antibody. The data was fit with a 1:1 binding model using the KinExA Pro software.

Lysozyme = experiment: Biacore 8K non-specific binding test, antibody over immobilised protein
Procedure: (§1) Non-specific binding of the lead molecule to unrelated surfaces is determined by biosensor technology (Biacore 8K). Antibody is passed over SPR surfaces coated with unrelated proteins. […] Irrelevant surfaces include negatively charged protein (Soy Trypsin Inhibitor), positively charged protein (Lysozyme and β-defensin), hydrophobic (Rh-integrin a4b7), human IgG, sticky protein (Rh-CD19). Proper controls are used in this experiment. Lead is flown over two surfaces, one is a blank and the other has a molecule directly immobilized. The response unit (RU) level is determined by subtracting the blank RU from the test surface RU. […] A response unit ≥100 predicts high risks for non-specific binding to charged/hydrophobic/IgG surfaces which would create challenges during manufacturing and translate to poor PK properties.

rh-Integrin a4b7 = rh-Integrin a4b7 (UniProt P13612 34-977; P26010 20-723, limits assumed); experiment: as above
Procedure: as §1

Human IgG = experiment: as above
Procedure: as §1

B-Defensin-3 = target: T8, B-Defensin-3; experiment: as above
T8 construct: also called β-defensin
Procedure: as §1

rh-CD19 = target: T2, rh-CD19; experiment: as above
Procedure: as §1

[3] = target: T9, human CD3 on human T cells (human, UniProt P07766 23-207); experiment: flow cytometry, primary human T cells, AF647 anti-human IgG F(ab')2 secondary
T9 construct: Native TCR-CD3 complex on cells; also called primary human T cells; human pan T cells
Procedure: The 80 mutant clones were assayed for binding to primary human T cells (FIGS. 7 and 8). […] The plates were centrifuged at 300×g for 5 minutes to pellet the cells and the supernatant removed. The plate was gently vortexed briefly to resuspend the cells.

Soy Trypsin Inhibitor = target: T3, Soy Trypsin Inhibitor; experiment: Biacore 8K non-specific binding test, antibody over immobilised protein
Procedure: as §1

T7 sequence (P07766 22-48): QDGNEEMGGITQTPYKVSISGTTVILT
Chain of Lysozyme (P00698 19-147): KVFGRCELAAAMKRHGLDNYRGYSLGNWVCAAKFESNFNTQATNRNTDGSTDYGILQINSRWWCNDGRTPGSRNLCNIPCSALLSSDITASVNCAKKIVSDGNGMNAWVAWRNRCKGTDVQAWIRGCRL
T8 sequence (P81534 23-67): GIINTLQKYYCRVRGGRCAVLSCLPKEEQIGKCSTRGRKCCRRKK
T6 sequence (Q04609 whole entry): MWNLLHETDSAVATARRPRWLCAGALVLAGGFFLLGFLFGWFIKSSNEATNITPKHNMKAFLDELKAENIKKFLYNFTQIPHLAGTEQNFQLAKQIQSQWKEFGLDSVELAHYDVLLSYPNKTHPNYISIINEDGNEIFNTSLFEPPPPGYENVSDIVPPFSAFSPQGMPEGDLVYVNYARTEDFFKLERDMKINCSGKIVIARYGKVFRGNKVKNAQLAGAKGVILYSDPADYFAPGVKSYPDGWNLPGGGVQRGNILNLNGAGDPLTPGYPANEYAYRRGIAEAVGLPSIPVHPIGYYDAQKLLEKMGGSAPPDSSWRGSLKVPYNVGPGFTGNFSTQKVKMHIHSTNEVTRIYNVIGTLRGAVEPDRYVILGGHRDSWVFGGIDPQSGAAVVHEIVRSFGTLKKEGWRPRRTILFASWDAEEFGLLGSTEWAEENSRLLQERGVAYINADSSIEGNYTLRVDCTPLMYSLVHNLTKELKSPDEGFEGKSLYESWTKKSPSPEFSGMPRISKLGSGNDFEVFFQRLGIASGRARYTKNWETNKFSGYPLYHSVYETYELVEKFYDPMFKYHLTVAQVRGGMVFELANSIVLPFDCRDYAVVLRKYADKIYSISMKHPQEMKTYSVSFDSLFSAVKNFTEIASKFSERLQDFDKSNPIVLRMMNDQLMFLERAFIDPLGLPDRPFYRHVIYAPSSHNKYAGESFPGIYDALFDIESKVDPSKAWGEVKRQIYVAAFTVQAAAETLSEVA
T9 sequence (P07766 23-207 limits assumed): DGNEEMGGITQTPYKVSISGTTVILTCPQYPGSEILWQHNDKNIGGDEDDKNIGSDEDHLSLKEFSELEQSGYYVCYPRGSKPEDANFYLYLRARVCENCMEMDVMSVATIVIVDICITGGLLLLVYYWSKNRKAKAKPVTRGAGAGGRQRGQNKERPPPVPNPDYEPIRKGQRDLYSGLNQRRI

Row | Kd (N-terminal CD3ε peptide) | koff (N-terminal CD3ε peptide) | kon (N-terminal CD3ε peptide) | response units (RU) (Lysozyme) | response units (RU) (rh-Integrin a4b7) | response units (RU) (Human IgG) | response units (RU) (B-Defensin-3) | response units (RU) (rh-CD19) | Binder | other results
1 |  |  |  |  |  |  |  |  | C33B836 (antibody, IgG4, V domains shown, OMNIRat-derived; same V regions as C33B48; also called C33H80/C33L73; C33F53) VH: QVQLVQSGSELRKPGASVKVSCKASGYTFTNYAMNWVRQAPGQGLEWMGWINTNTGNPTYAQGFTGRFVFSLDTSVSSAYLQISSLKAEDTAMYYCATDRDRGTDYWGQGTLVTVSS VL: QSALTQPASVSGSPGQSITISCTGTSSDVGDYNYVSWYQQHPGKVPKLMIYDVSNRPSGVSNRFSGSMSGNTASLTISGLQAEDEADYYCSSYSSSSALEVFGGGTKLTVL | koff (Human CD33 ECD-HSA): 5.52e-05 s⁻¹; koff (Human CD33-V-HSA): 3.71e-05 s⁻¹
2 |  |  |  |  |  |  |  |  | PS3B90 (bispecific antibody, human IgG4 S228P, kappa, lambda, F234A L235A, IgG4 PAA; also called PSMB365 x CD3B376) heavy 1: not shown light 1: not shown heavy 2: QVQLQQSGPRLVRPSQTLSLTCAISGDSVFNNNAAWSWIRQSPSRGLEWLGRTYYRSKWLYDYAVSVKSRITVNPDTSRNQFTLQLNSVTPEDTALYYCARGYSSSFDYWGQGTLVTVSSASTKGPSVFPLAPCSRSTSESTAALGCLVKDYFPEPVTVSWNSGALTSGVHTFPAVLQSSGLYSLSSVVTVPSSSLGTKTYTCNVDHKPSNTKVDKRVESKYGPPCPPCPAPEAAGGPSVFLFPPKPKDTLMISRTPEVTCVVVDVSQEDPEVQFNWYVDGVEVHNAKTKPREEQFNSTYRVVSVLTVLHQDWLNGKEYKCKVSNKGLPSSIEKTISKAKGQPREPQVYTLPPSQEEMTKNQVSLTCLVKGFYPSDIAVEWESNGQPENNYKTTPPVLDSDGSFLLYSKLTVDKSRWQEGNVFSCSVMHEALHNHYTQKSLSLSLGK light 2: QSALTQPASVSGSPGQSITISCTGTSSNIGTYKFVSWYQQHPDKAPKVLLYEVSKRPSGVSSRFSGSKSGNTASLTISGLQAEDQADYHCVSYAGSGTLLFGGGTKLTVLGQPKAAPSVTLFPPSSEELQANKATLVCLISDFYPGAVTVAWKADSSPVKAGVETTTPSKQSNNKYAASSYLSLTPEQWKSHRSYSCQVTHEGSTVEKTVAPTECS | binding result [1]: binds
3 | 28.7 nM | 0.00103 s⁻¹ | 35700 M⁻¹ s⁻¹ | 4.2 RU | 0 RU | 7.5 RU | 6.4 RU | 3.4 RU | TMCB150 (bispecific antibody, human IgG4 S228P, kappa, lambda, F234A L235A, IgG4 PAA bispecific by Fab-arm exchange; also called TMEB762 x CD3B376) heavy 1: not shown light 1: not shown heavy 2: QVQLQQSGPRLVRPSQTLSLTCAISGDSVFNNNAAWSWIRQSPSRGLEWLGRTYYRSKWLYDYAVSVKSRITVNPDTSRNQFTLQLNSVTPEDTALYYCARGYSSSFDYWGQGTLVTVSSASTKGPSVFPLAPCSRSTSESTAALGCLVKDYFPEPVTVSWNSGALTSGVHTFPAVLQSSGLYSLSSVVTVPSSSLGTKTYTCNVDHKPSNTKVDKRVESKYGPPCPPCPAPEAAGGPSVFLFPPKPKDTLMISRTPEVTCVVVDVSQEDPEVQFNWYVDGVEVHNAKTKPREEQFNSTYRVVSVLTVLHQDWLNGKEYKCKVSNKGLPSSIEKTISKAKGQPREPQVYTLPPSQEEMTKNQVSLTCLVKGFYPSDIAVEWESNGQPENNYKTTPPVLDSDGSFLLYSKLTVDKSRWQEGNVFSCSVMHEALHNHYTQKSLSLSLGK light 2: QSALTQPASVSGSPGQSITISCTGTSSNIGTYKFVSWYQQHPDKAPKVLLYEVSKRPSGVSSRFSGSKSGNTASLTISGLQAEDQADYHCVSYAGSGTLLFGGGTKLTVLGQPKAAPSVTLFPPSSEELQANKATLVCLISDFYPGAVTVAWKADSSPVKAGVETTTPSKQSNNKYAASSYLSLTPEQWKSHRSYSCQVTHEGSTVEKTVAPTECS | Kd [2]: 0.0636 nM
4 |  |  |  |  |  |  |  |  | D43G/V48L/L49M/L50I/S62N/Q85E/H89Y LC (with WT HC) (antibody, V domains shown, also called BLW-2E6 variant CD3H219/CD3L136) VH: QVQLQQSGPRLVRPSQTLSLTCAISGDSVFNNNAAWSWIRQSPSRGLEWLGRTYYRSKWLYDYAVSVKSRITVNPDTSRNQFTLQLNSVTPEDTALYYCARGYSSSFDYWGQGTLVTVSS VL: QSALTQPASVSGSPGQSITISCTGTSSNIGTYKFVSWYQQHPGKAPKLMIYEVSKRPSGVSNRFSGSKSGNTASLTISGLQAEDEADYYCCSYAGSGTLLFGGGTKLTVL | binding result [3]: no binding (tested: 50 nM)
5 | 26.9 nM | 0.00117 s⁻¹ | 43300 M⁻¹ s⁻¹ | 0.2 RU | 0 RU | 0.4 RU | 3.1 RU | 0 RU | CD3B376 (antibody, human IgG4 S228P, lambda, F234A L235A, V domains shown, Bivalent anti-CD3 parental mAb, IgG4 PAA with F405L and R409K; also called CD3H219/CD3L150) VH: QVQLQQSGPRLVRPSQTLSLTCAISGDSVFNNNAAWSWIRQSPSRGLEWLGRTYYRSKWLYDYAVSVKSRITVNPDTSRNQFTLQLNSVTPEDTALYYCARGYSSSFDYWGQGTLVTVSS VL: QSALTQPASVSGSPGQSITISCTGTSSNIGTYKFVSWYQQHPDKAPKVLLYEVSKRPSGVSSRFSGSKSGNTASLTISGLQAEDQADYHCVSYAGSGTLLFGGGTKLTVLG | response units (RU) (Soy Trypsin Inhibitor): 19.5 RU
